Earlier results in patent US9956303B2, “Anti-met therapy for previously diagnosed cancer patients” (GE HEALTHCARE LIMITED, priority 2011, dated 2018).

Experiments:
c-Met [1] = target: T1, c-Met (Homo sapiens, UniProt P08581); set-up: host or cells: NSCLC patients' tumours; conditions: for median overall-survival: analysed by retrospective IHC of archive biopsy samples, p=0.002
[2] = in vivo
c-Met [3] = target: T1, c-Met; conditions: mouse, in vivo
HGF = target: T2, HGF (Homo sapiens, UniProt P14210); conditions: combination with ECX
T2 construct: host or cells: patients
T2 sequence (P14210 32-728): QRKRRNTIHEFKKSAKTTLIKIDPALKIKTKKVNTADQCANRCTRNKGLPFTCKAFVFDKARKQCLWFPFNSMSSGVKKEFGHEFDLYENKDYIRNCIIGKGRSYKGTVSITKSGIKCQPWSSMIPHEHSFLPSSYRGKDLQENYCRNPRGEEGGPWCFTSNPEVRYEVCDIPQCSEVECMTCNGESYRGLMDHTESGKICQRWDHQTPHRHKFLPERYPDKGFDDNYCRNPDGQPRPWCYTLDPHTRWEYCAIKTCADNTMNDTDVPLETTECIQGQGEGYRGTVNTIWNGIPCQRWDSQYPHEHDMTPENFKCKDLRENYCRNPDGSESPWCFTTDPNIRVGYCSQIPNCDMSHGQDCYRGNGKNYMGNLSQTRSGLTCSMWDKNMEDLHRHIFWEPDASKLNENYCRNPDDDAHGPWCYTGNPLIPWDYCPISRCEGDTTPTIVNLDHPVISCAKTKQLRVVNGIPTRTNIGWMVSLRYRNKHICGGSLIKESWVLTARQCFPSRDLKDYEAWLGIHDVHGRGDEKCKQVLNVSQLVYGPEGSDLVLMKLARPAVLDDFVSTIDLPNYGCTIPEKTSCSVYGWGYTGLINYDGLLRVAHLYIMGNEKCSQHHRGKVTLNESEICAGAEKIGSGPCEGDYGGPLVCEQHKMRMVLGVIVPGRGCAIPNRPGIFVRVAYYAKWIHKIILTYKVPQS

T1 sequence (P08581 25-1390): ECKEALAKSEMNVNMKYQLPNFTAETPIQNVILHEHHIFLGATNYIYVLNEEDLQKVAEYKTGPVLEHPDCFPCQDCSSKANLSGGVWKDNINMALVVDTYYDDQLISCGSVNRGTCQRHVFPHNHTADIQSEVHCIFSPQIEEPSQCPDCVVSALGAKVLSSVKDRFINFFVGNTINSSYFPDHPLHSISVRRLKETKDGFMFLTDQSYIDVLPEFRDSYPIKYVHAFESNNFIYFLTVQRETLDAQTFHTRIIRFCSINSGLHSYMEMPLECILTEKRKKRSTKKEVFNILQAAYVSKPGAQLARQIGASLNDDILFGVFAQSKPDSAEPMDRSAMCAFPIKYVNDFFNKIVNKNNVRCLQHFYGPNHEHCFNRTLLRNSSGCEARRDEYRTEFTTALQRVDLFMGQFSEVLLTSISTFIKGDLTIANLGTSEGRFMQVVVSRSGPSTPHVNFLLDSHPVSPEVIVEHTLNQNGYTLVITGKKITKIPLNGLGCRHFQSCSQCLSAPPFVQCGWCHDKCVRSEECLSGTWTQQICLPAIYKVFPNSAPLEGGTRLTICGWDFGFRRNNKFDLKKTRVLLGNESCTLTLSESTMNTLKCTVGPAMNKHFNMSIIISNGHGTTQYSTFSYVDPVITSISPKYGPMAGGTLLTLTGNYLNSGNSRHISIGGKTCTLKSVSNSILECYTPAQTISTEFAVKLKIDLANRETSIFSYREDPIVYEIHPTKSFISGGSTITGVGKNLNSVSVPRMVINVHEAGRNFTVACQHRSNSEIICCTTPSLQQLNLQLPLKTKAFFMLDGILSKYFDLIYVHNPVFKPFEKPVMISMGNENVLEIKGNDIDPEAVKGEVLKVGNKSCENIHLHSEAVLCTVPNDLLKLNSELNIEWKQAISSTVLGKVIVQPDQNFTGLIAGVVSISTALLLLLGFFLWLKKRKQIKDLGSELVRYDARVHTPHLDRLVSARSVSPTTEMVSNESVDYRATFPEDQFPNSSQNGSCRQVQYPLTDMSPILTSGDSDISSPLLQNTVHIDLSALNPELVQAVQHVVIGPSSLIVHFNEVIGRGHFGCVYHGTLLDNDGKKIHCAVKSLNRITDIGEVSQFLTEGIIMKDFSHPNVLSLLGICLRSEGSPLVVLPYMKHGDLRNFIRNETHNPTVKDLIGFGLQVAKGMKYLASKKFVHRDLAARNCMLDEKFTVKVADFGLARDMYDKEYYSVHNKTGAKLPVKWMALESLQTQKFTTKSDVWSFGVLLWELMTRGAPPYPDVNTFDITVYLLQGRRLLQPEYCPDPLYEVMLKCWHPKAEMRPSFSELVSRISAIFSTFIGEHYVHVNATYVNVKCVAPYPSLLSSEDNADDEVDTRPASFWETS

MetMAb: a monoclonal antibody blocking c-Met (Roche)
outcome, low c-Met expression (c-Met [1]; MetMAb in combination with Erlotinib compared to Erlotinib alone): worse outcome
median overall-survival (c-Met [1]): 12.6 months
outcome, patient group as a whole (c-Met [1]; patients with high and low c-Met expression, MetMAb+Erlotinib vs placebo+Erlotinib): no differences between the two treatments
combined elimination half-life [2]: 190 to 288 h

MetMab™ labelled with ^76Br or ^89Zr: anti-c-Met antibody (MetMab) labelled with 76Br or 89Zr for molecular imaging of c-Met
tumour uptake and clearance (c-Met [3]): rapid tumour uptake and slow clearance

C#Cc1cccc(Nc2ncnc3cc(OCCOC)c(OCCOC)cc23)c1 [Erlotinib, reference compound]
median overall-survival (c-Met [1]): 3.8 months

rilotumumab: HGF antibody (Amgen)
median overall survival vs placebo and ECX (HGF; c-Met high tumours (>50% tumour cells positive)): improved median overall survival
overall survival vs placebo and ECX (HGF; c-Met low tumours (≤50% positive)): trend toward unfavourable overall survival
